Assay results taken from publication PMC10570038.

Target: RBPMS-A dC20 (rat) (UniProt A0A8I6G705)
Test: EMSA
Settings: apparent; EMSA: 10 nM RNA, 25 mM HEPES pH 7.9, 100 mM KCl, 2 mM MgCl2, 0.625 mM DTT, 0.1 mg/ml BSA, 5% glycerol, 30 C 1 h, then 5 mg/ml heparin 10 min; 5% native PAGE in …

Chain of RBPMS-A dC20 (rat) (A0A8I6G705 1-177): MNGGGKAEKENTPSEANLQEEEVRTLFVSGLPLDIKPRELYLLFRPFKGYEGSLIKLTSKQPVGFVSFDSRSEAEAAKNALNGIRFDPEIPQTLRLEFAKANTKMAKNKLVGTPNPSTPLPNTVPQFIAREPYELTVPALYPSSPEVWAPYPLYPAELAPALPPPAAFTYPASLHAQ

## GUCUACGCACCCUCAACCCGCACCUUGCGGGAUG [(CAC)2]
  Kd: 2500 nM
